Assay results from IntAct's records for PubMed 17959776.

B1: Acetylglutamate kinase (Synechococcus elongatus (strain PCC 7942)), Q6V1L5 (parent)
chain: MSSEFIEAGAADRVRILSEALPYLQQFAGRTVVVKYGGAAMKQEELKEAVMRDIVFLACVGMRPVVVHGGGPEINAWLGRVGIEPQFHNGLRVTDADTMEVVEMVLVGRVNKDIVSRINTTGGRAVGFCGTDGRLVLARPHDQEGIGFVGEVNSVNSEVIEPLLERGYIPVISSVAADENGQSFNINADTVAGEIAAALNAEKLILLTDTRGILEDPKRPESLIPRLNIPQSRELIAQGIVGGGMIPKVDCCIRSLAQGVRAAHIIDGRIPHALLLEIFTDAGIGTMIVGSGYHEAHQPWQ
B2: Nitrogen regulatory protein P-II (Synechococcus elongatus (strain PCC 7942)), P0A3F4 (parent)
chain: MKKIEAIIRPFKLDEVKIALVNAGIVGMTVSEVRGFGRQKGQTERYRGSEYTVEFLQKLKLEIVVEDAQVDTVIDKIVAAARTGEIGDGKIFVSPVDQTIRIRTGEKNADAI
partner: B1 chain

Variants of: B1
Settings: with glnb_syne7 glnB, P0A3F4

Variant	effect of a mutation on the interaction
MSSEFIEAGAADRVRILSEALPYLQQFAGRTVVVKYGGAAMKQEELKEAVMRDIVFLACVGMRPVVVHGGGPEINAWLGRVGIEPQFHNGLRVTDADTMEVVEMVLVGRVNKDIVSRINTTGGRAVGFCGTDGRLVLARPHDQEGIGFVGEVNSVNSEVIEPLLERGYIPVISSVAADENGQSFNINADTVAGEIAAALNAEKLILLTDTRGILEDPKRPESLIPRLNIPQSRELIAQGIVGGGMIPKVDCCIRSAAQGVRAAHIIDGRIPHALLLEIFTDAGIGTMIVGSGYHEAHQPWQ [L256A]	disrupting interaction
MSSEFIEAGAADRVRILSEALPYLQQFAGRTVVVKYGGAAMKQEELKEAVMRDIVFLACVGMRPVVVHGGGPEINAWLGRVGIEPQFHNGLRVTDADTMEVVEMVLVGRVNKDIVSRINTTGGRAVGFCGTDGRLVLARPHDQEGIGFVGEVNSVNSEVIEPLLERGYIPVISSVAADENGQSFNINADTVAGEIAAALNAEKLILLTDTRGILEDPKRPESLIPRLNIPQSRELIAQGIVGGGMIPKVDCCIASLAQGVRAAHIIDGRIPHALLLEIFTDAGIGTMIVGSGYHEAHQPWQ [R254A]	disrupting interaction
MSSEFIEAGAADRVRILSEALPYLQQFAGRTVVVKYGGAAMKQEELKEAVMRDIVFLACVGMRPVVVHGGGPEINAWLGRVGIEPQFHNGLRVTDADTMEVVEMVLVGRVNKDIVSRINTTGGRAVGFCGTDGRLVLARPHDQEGIGFVGEVNSVNSEVIEPLLERGYIPVISSVAADENGQSFNINADTVAGEIAAALNAEKLILLTDTRGILEDPKRPESLIPRLNAPQSRELIAQGIVGGGMIPKVDCCIRSLAQGVRAAHIIDGRIPHALLLEIFTDAGIGTMIVGSGYHEAHQPWQ [I229A]	disrupting interaction
MSSEFIEAGAADRVRILSEALPYLQQFAGRTVVVKYGGAAMKQEELKEAVMRDIVFLACVGMRPVVVHGGGPEINAWLGRVGIEPQFHNGLRVTDADTMEVVEMVLVGRVNKDIVSRINTTGGRAVGFCGTDGRLVLARPHDQEGIGFVGEVNSVNSEVIEPLLERGYIPVISSVAADENGQSFNINADTVAGEIAAALNAEKLILLTDTRGILEDPKRPESLIPRLNIPQSRELIAQGIVGGGMIPKVDCCIRSLAAGVRAAHIIDGRIPHALLLEIFTDAGIGTMIVGSGYHEAHQPWQ [Q258A]	disrupting interaction
MSSEFIEAGAADRVRILSEALPYLQQFAGRTVVVKYGGAAMKQEELKEAVMRDIVFLACVGMRPVVVHGGGPEINAWLGRVGIEPQFHNGLRVTDADTMEVVEMVLVGRVNKDIVSRINTTGGRAVGFCGTDGRLVLARPHDQEGIGFVGEVNSVNSEVIEPLLERGYIPVISSVAADENGQSFNINADTVAGEIAAALNAEKLILLTDTRGILEDPKRPESLIPRLNIPQSAELIAQGIVGGGMIPKVDCCIRSLAQGVRAAHIIDGRIPHALLLEIFTDAGIGTMIVGSGYHEAHQPWQ [R233A]	disrupting interaction
MSSEFIEAGAADRVRILSEALPYLQQFAGRTVVVKYGGAAMKQEELKEAVMRDIVFLACVGMRPVVVHGGGPEINAWLGRVGIEPQFHNGLRVTDADTMEVVEMVLVGRVNKDIVSRINTTGGRAVGFCGTDGRLVLAAPHDQEGIGFVGEVNSVNSEVIEPLLERGYIPVISSVAADENGQSFNINADTVAGEIAAALNAEKLILLTDTRGILEDPKRPESLIPRLNIPQSRELIAQGIVGGGMIPKVDCCIRSLAQGVRAAHIIDGRIPHALLLEIFTDAGIGTMIVGSGYHEAHQPWQ [R139A]	disrupting interaction

Variants of: B2
Settings: with argb_syne7 argB, Q6V1L5

Variant	effect of a mutation on the interaction
R47A	disrupting interaction
Y46A	disrupting interaction
S49E	disrupting interaction strength
S49A	disrupting interaction strength
S49D	disrupting interaction strength
E85A	disrupting interaction
F11A	disrupting interaction
R45A	disrupting interaction

Variants of: B2
Settings: with argb_syne7 argB

Variant	effect of a mutation on the interaction
S49D	disrupting interaction
